# T1: VP1-4I-G (Coxsackievirus A4)
# T1 construct: Synthetic single-site mutant peptide; also called VP1 1-15 peptide, position 4 I-G
# T1 peptide: GDAGADAIQNTVTTT
# T2: VP1-3A-G (Coxsackievirus A4)
# T2 construct: Synthetic single-site mutant peptide; also called VP1 1-15 peptide, position 3 A-G
# T2 peptide: GDGIADAIQNTVTTT
# T3: VP1-6D-G (Coxsackievirus A4)
# T3 construct: Synthetic single-site mutant peptide; also called VP1 1-15 peptide, position 6 D-G
# T3 peptide: GDAIAGAIQNTVTTT
# T4: VP1-2D-G (Coxsackievirus A4)
# T4 construct: Synthetic single-site mutant peptide; also called VP1 1-15 peptide, position 2 D-G
# T4 peptide: GGAIADAIQNTVTTT
# T5: CV-A4结构蛋白VP1的1号肽段 (VP1前1-15氨基酸) (Coxsackievirus A4)
# T5 construct: Synthetic peptide; also called VP1 1-15
# T5 peptide: GDAIADAIQNTVTTT
# T6: VP1-11T-G (Coxsackievirus A4)
# T6 construct: Synthetic single-site mutant peptide; also called VP1 1-15 peptide, position 11 T-G
# T6 peptide: GDAIADAIQNGVTTT
# T7: VP1-8I-G (Coxsackievirus A4)
# T7 construct: Synthetic single-site mutant peptide; also called VP1 1-15 peptide, position 8 I-G
# T7 peptide: GDAIADAGQNTVTTT
# T8: VP1-5A-G (Coxsackievirus A4)
# T8 construct: Synthetic single-site mutant peptide; also called VP1 1-15 peptide, position 5 A-G
# T8 peptide: GDAIGDAIQNTVTTT
# T9: VP1-15T-G (Coxsackievirus A4)
# T9 construct: Synthetic single-site mutant peptide; also called VP1 1-15 peptide, position 15 T-G
# T9 peptide: GDAIADAIQNTVTTG
# T10: VP1-7A-G (Coxsackievirus A4)
# T10 construct: Synthetic single-site mutant peptide; also called VP1 1-15 peptide, position 7 A-G
# T10 peptide: GDAIADGIQNTVTTT
# T11: VP1-12V-G (Coxsackievirus A4)
# T11 construct: Synthetic single-site mutant peptide; also called VP1 1-15 peptide, position 12 V-G
# T11 peptide: GDAIADAIQNTGTTT
# T12: VP1-13T-G (Coxsackievirus A4)
# T12 construct: Synthetic single-site mutant peptide; also called VP1 1-15 peptide, position 13 T-G
# T12 peptide: GDAIADAIQNTVGTT
# T13: VP1-10N-G (Coxsackievirus A4)
# T13 construct: Synthetic single-site mutant peptide; also called VP1 1-15 peptide, position 10 N-G
# T13 peptide: GDAIADAIQGTVTTT
# T14: VP1-14T-G (Coxsackievirus A4)
# T14 construct: Synthetic single-site mutant peptide; also called VP1 1-15 peptide, position 14 T-G
# T14 peptide: GDAIADAIQNTVTGT
# T15: VP1-9Q-G (Coxsackievirus A4)
# T15 construct: Synthetic single-site mutant peptide; also called VP1 1-15 peptide, position 9 Q-G
# T15 peptide: GDAIADAIGNTVTTT
# B1: 单克隆抗体7H11E (antibody, V domains shown)
# VH: SGPGLVAPSQSLSITCTVSGFSLPSYDVHWVRQPPGKGLEWLGVIWAGGSTHYNSALMSRLSISKDNSKSQVFLKMNSLQTDDTAMYYCAGLRAFAMDYWGQGTSVTVSS
# VL: PIVLTQSPAILSVSPGERVSFSCRASQSIGTNIHWYQQGANGSPRLLIKYASESISGIPSRFSGSGSGTDFTLSINSVESEDIADYYCQQSNSWPWTFGGGTKLEIQR
# notes: Mouse hybridoma antibody purified from ascites, IgG2b subtype; also called 7H11E单克隆抗体
# Tests used:
# [1] = target: T1, VP1-4I-G; test: indirect ELISA on coated mutant peptide (- means ELISA negative)
# [2] = target: T2, VP1-3A-G; test: as above
# [3] = target: T3, VP1-6D-G; test: as above
# [4] = target: T4, VP1-2D-G; test: as above
# [5] = target: T5, CV-A4结构蛋白VP1的1号肽段 (VP1前1-15氨基酸); test: indirect ELISA on coated overlapping VP1 peptides, 7H11E 1μg/ml
# [6] = target: T6, VP1-11T-G; test: indirect ELISA on coated mutant peptide (+ means ELISA positive)
# [7] = target: T7, VP1-8I-G; test: as above
# [8] = target: T8, VP1-5A-G; test: as above
# [9] = target: T9, VP1-15T-G; test: as above
# [10] = target: T10, VP1-7A-G; test: as above
# [11] = target: T11, VP1-12V-G; test: as above
# [12] = target: T12, VP1-13T-G; test: as above
# [13] = target: T13, VP1-10N-G; test: as above
# [14] = target: T14, VP1-14T-G; test: as above
# [15] = target: T15, VP1-9Q-G; test: as above
binder,measurement,setting,value
B1,binding result,[1],no binding
same,binding result,[2],no binding
same,binding result,[3],no binding
same,binding result,[4],no binding
same,binding result,[5],binds
same,binding result,[6],binds
same,binding result,[7],binds
same,binding result,[8],binds
same,binding result,[9],binds
same,binding result,[10],binds
same,binding result,[11],binds
same,binding result,[12],binds
same,binding result,[13],binds
same,binding result,[14],binds
same,binding result,[15],binds

# From CN116239682A (WUHAN INST OF BIOLOGICAL PRODUCTS CO LTD, dated 2023)
